From article PMC5499601 (Nucleic Acids Research, 2017)
Numbering of substitutions follows the chain as printed.

Legend:
Assay in all cases: EMSA
BsSpo0J L60E = molecular target: T1, BsSpo0J L60E (UniProt P26497 1-282, L60E)
T1 sequence: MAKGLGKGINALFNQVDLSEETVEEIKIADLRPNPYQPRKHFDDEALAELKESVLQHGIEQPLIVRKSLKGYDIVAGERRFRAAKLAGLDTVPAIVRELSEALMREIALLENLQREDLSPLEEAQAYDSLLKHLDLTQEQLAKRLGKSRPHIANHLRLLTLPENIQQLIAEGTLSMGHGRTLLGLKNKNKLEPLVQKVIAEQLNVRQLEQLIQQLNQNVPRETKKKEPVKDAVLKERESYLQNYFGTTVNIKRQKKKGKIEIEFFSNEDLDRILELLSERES

BsSpo0J R82A = molecular target: T2, BsSpo0J R82A (UniProt P26497 1-282, R82A)
T2 sequence: T1 sequence with E60L, R82A

BsSpo0J R39A = molecular target: T3, BsSpo0J R39A (UniProt P26497 1-282, R39A)
T3 sequence: T1 sequence with R39A, E60L

BsSpo0J V75A = molecular target: T4, BsSpo0J V75A (UniProt P26497 1-282, V75A)
T4 sequence: T1 sequence with E60L, V75A

BsSpo0J R80A = molecular target: T5, BsSpo0J R80A (UniProt P26497 1-282, R80A)
T5 sequence: T1 sequence with E60L, R80A

BsSpo0J Q61A = molecular target: T6, BsSpo0J Q61A (UniProt P26497 1-282, Q61A)
T6 sequence: T1 sequence with E60L, Q61A

BsSpo0J R105A = molecular target: T7, BsSpo0J R105A (UniProt P26497 1-282, R105A)
T7 sequence: T1 sequence with E60L, R105A

BsSpo0J Q140R = molecular target: T8, BsSpo0J Q140R (UniProt P26497 1-282, Q140R)
T8 sequence: T1 sequence with E60L, Q140R

BsSpo0J E52R = molecular target: T9, BsSpo0J E52R (UniProt P26497 1-282, E52R)
T9 sequence: T1 sequence with E52R, E60L

Measured: binding result

B1: 24-bp parS (dsDNA)
DNA 1: AGAATGTTCCACGTGAAACAAAGA
DNA 2: TCTTTGTTTCACGTGGAACATTCT
binds: all assays above
